Results on 1 molecule are retold here after patent US20110086089A1 (UNIVERSITY HEALTH NETWORK, published 2011).

The target in this assay is T1, wt.CK2-alpha-prime immobilized on GST-beads (UniProt P19784 1-350).
T1 construct: also called GST-CK2-alpha-prime; recombinant CK2-alpha-prime; not shown: N-terminal GST tag of pGEX-2lambdaT
Briefly: GST pull-down of in vitro-translated His-tagged p27 mutants on GST-CK2-alpha-prime, anti-His immunoblot.

T1 sequence (P19784 whole entry): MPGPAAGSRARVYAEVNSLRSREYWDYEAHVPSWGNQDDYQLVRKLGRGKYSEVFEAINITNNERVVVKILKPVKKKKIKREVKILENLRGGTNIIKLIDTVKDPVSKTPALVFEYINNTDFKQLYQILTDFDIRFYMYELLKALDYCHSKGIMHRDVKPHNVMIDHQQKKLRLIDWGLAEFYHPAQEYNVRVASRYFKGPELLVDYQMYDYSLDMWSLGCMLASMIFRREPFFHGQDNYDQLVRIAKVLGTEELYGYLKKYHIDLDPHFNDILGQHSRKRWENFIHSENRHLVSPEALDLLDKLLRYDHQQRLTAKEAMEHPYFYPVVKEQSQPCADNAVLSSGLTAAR

B1: p27deltaC (p27.1-86), in vitro-translated His-tagged truncation mutant of p27 (other)
chain: MSNVRVSNGSPSLERMDARQADHPKPSACRNLFGPVDHEELTRDLEKHCRDMEEASQRKWNFDFQNHKPLEGKYEWQEVEKGSLPE
notes: also called p27ΔC; not shown: N-terminal His-tag of pEXP2
Consider B1, for which the binding result is on record as “no binding”.
